Where a chain is given by its changes, count along the chain named. Names and notes keep the numbering of the source. * marks the point of attachment. FITC = O=C1OC2(c3ccc(O)cc3Oc3cc(O)ccc32)c2ccc(NC(=S)*)cc21
Key:
[1] = target: USP20 DUSP2 domain, tag cleaved (for FP) (human); assay: FP
[2] = target: USP20 zf-UBP domain, tag cleaved (for FP) (human); assay: FP
[3] = target: T1, USP33 zf-UBP domain, tag cleaved (for FP) (human, UniProt Q8TEY7 1-942); assay: FP
T1 chain: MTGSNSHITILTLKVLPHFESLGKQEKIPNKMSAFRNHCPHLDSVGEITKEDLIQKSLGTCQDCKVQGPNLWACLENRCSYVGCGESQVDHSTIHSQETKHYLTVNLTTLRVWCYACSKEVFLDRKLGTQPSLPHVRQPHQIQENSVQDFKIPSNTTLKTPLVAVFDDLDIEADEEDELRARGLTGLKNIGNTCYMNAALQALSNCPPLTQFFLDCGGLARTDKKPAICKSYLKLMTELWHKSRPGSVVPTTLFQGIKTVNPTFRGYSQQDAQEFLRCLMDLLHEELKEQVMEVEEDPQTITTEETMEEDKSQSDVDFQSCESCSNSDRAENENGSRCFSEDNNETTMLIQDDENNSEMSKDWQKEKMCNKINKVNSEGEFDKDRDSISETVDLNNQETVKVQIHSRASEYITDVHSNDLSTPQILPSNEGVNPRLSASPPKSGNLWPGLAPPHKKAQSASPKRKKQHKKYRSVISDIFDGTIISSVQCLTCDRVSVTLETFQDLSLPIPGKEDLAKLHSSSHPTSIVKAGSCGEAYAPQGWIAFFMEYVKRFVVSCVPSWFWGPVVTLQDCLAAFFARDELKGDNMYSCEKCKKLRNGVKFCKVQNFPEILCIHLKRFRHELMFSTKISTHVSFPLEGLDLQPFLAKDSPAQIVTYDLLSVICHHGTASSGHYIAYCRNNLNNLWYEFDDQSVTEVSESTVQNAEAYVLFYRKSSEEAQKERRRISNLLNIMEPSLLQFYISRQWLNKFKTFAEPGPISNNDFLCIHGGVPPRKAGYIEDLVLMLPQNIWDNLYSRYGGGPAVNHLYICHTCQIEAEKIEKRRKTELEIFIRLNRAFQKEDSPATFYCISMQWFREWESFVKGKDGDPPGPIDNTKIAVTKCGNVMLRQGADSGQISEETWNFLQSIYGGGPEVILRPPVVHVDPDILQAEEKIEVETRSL

USP22 zf-UBP = target: T2, USP22 zf-UBP (Homo sapiens, UniProt Q9UPT9); assay: fluorescence polarization (direct for FITC probes, competitive otherwise)
T2 chain: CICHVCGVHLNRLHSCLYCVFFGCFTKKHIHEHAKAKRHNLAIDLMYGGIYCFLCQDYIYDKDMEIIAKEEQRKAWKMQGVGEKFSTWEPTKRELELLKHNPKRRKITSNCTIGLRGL

[4] = target: T3, USP33 DUSP2 domain, tag cleaved (for FP) (human, UniProt Q8TEY7 1-942); assay: FP
T3 chain: T1 chain

[5] = target: T4, USP20 DUSP2 domain N805A (for FP) (human); assay: FP
T4 chain: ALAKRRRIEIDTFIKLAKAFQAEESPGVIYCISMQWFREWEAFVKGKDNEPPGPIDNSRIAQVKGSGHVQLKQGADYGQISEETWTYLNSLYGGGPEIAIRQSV

[6] = target: T5, USP20 DUSP2 domain K833E/K835E (for FP) (human); assay: FP
T5 chain: T4 chain with A17N, K45E, K47E

Sequence of USP20 zf-UBP domain, tag cleaved (for FP) (human) (chain, as listed by the source): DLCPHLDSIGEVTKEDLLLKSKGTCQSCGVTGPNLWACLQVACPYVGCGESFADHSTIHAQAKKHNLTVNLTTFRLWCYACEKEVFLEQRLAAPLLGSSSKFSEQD

Ac-PYIPMDDDFQARSFDQLS-NH2 [HIF1A 564-581 L574A]
Kd [1]: 89 µM

Ac-EKVKRRLDLDID-NH2 [CCP110_(582-593) peptide]
Kd [2]: > 500 µM | Kd [3]: > 250 µM

LPSPEVMLGQSWNLWVE (FITC label on probe peptides (FITC- prefix)) [ATXN7]
Kd (USP22 zf-UBP): 58.4 µM

Ac-PYIPMDKDFQLRSFDQLS-NH2 [HIF1A 564-581 D570K]
Kd [1]: 19 µM

Ac-LQPSSKASLESTSDL-NH2 [CEP192 2073-2087]
Kd [2]: 37 µM | Kd [3]: 14 µM

Ac-PFQPGRMALESQSPG-NH2 [USP19 874-888]
Kd [3]: 41 µM

Ac-PYIPMDDKFQLRSFDQLS-NH2 [HIF1A 564-581 D571K]
Kd [1]: 85 µM

Ac-PYIPMDDDFQLRSFDQLS-NH2 [HIF1A 564-581]
Kd [1]: 19 µM

Ac-PYIPMDGEDFQLSPICPE-NH2 [HIF2A peptide 531-548]
Kd [1]: > 200 µM | Kd [4]: > 1000 µM

Ac-TNSSGKMALNSPQPG-NH2 [IRAG1 302-316]
Kd [2]: 9 µM | Kd [3]: 8 µM

Ac-DVVDDFQLQHRHGPG-NH2 [MFSD2B_(395-409) peptide]
Kd [1]: 45 µM | Kd [4]: 0.8 µM

{FITC}-SDDDLAWNIAPQGLQ-NH2 [FITC-GPR137B 348-362]
Kd [5]: > 130 µM | Kd [1]: 5 µM | Kd [6]: > 290 µM

Ac-SDDDLAWNIAPQGLQ-NH2 [GPR137B_(348-362) peptide]
Kd [1]: 10 µM | Kd [4]: > 200 µM

VPSLDDFAGQSWSSWVE (FITC label on probe peptides (FITC- prefix)) [ATXN7L2_18-34]
Kd (USP22 zf-UBP): 19.4 µM

Ac-QLEEELFQLRQGPAG-NH2 [CCDC88B_(947-961) peptide]
Kd [1]: 22 µM | Kd [4]: 40 µM

From PMC13376213 (2026)
